± gives the standard deviation of the averaged measurements.
Tested on: ATP
Test: switch fluorescence ratio, 500 uM ATP over buffer (Cy3 cluster intensity, sum of 5 cycles each) (fold (ratio)); higher = stronger signal-on switching upon ATP binding; sequences stand for … in TCGTCGGCAGCGTCAGATGTGTATAAGAGACAGTTTTTTTTTTTTTTTTTTTTTTTTT…TC
Conditions: aptamer strand: ATP DNA aptamer (quencher-CACCTGGGGGAGTATTGCGGAGGAAGG + anchor), 100 nM annealed; ATP concentration: 500 uM
Method in brief: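 Between each of five buffer/ATP cycles, the flow-cell was stripped with NaOH and re-annealed. Each cycle imaged Cy3-labelled switching-strand clusters, annealed to 100 nM quencher-labelled ATP aptamer on a modified Illumina MiSeq flow-cell, first in selection buffer and then after 15 min with 500 uM ATP at 22 °C. The fluorescence ratio is summed target-cycle over summed buffer-cycle Cy3 intensity per cluster, averaged per switch-domain sequence, with clusters outside 100-1000 RFU excluded.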
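Also: ATP exposure 15 min at 22 °C before imaging.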

Row | Sequence | switch fluorescence ratio
1 | TAGTGCGCGC | 1.03 ± 0.025
2 | TAGTGCTGCA | 0.9692 ± 0.0012
3 | TAGTGGACTC | 1.02 ± 0.034
4 | TAGTGGAGTG | 1 ± 0.011
5 | TAGTGGCCTG | 0.955 ± 0.023
6 | TAGTGGGCTG | 0.972 ± 0.025
7 | TAGTGGGGTG | 0.969 ± 0.01
8 | TAGTGGGTGG | 0.989 ± 0.01
9 | TAGTGGTGGA | 0.9979 ± 0.009
10 | TAGTGGTTT | 0.986 ± 0.024
11 | TAGTTACACG | 1.01 ± 0.025
12 | TAGTTATCGT | 1.01 ± 0.027
13 | TAGTTATGAA | 1.01 ± 0.016
14 | TAGTTATTA | 0.989 ± 0.026
15 | TAGTTCTCTT | 0.989 ± 0.026
16 | TAGTTGAGTG | 0.987 ± 0.037
17 | TAGTTGGTTT | 0.999 ± 0.037
18 | TAGTTTGAAT | 1.01 ± 0.024
19 | TAGTTTTACC | 1 ± 0.013
20 | TAGTTTTCAT | 1.021 ± 0.01
21 | TAGTTTTCGC | 1 ± 0.031
22 | TAGTTTTTCG | 1 ± 0.025
23 | TATAAAAAAT | 1 ± 0.028
24 | TATAAAAATC | 1.07 ± 0.084
25 | TATAAATAGT | 0.96 ± 0.046
26 | TATAACGGTT | 1.034 ± 0.0074

Row | Sequence | switch fluorescence ratio
27 | TATAACTCAT | 1.02 ± 0.029
28 | TATAAGGGCG | 0.976 ± 0.058
29 | TATAAGGGGT | 0.9862 ± 0.0083
30 | TATAAGTAGG | 0.968 ± 0.028
31 | TATAAGTGAT | 1.17 ± 0.26
32 | TATAATAGTA | 1.0013 ± 0.001
33 | TATAATATAT | 1 ± 0.029
34 | TATAATCCTG | 0.992 ± 0.035
35 | TATAATGGCT | 0.9555 ± 0.0054
36 | TATAATGGGC | 0.965 ± 0.031
37 | TATAATGTGC | 1.04 ± 0.012
38 | TATAATTCTA | 0.9844 ± 0.0075
39 | TATAATTCTG | 1.04 ± 0.029
40 | TATACGCGCC | 1.12 ± 0.083
41 | TATACGGAAT | 1.16 ± 0.051
42 | TATACGGGTG | 1.073 ± 0.0046
43 | TATACGTCTA | 1.07 ± 0.043
44 | TATACGTGCC | 1.03 ± 0.025
45 | TATACTACGG | 1.09 ± 0.024
46 | TATACTTGGC | 1.07 ± 0.059
47 | TATAGCATGT | 1.038 ± 0.007
48 | TATAGCGCTT | 0.9905 ± 0.0035
49 | TATAGCTAAT | 1.027 ± 0.0041
50 | TATAGGAAAA | 1.35 ± 0.61
51 | TATAGGATTT | 1 ± 0.08
52 | TATAGGGAGG | 0.988 ± 0.027

Row | Sequence | switch fluorescence ratio
53 | TATAGGGGGG | 1 ± 0.017
54 | TATAGGTTTT | 1 ± 0.081
55 | TATAGTACGG | 1.049 ± 0.0095
56 | TATAGTGGTC | 0.971 ± 0.035
57 | TATAGTTGTT | 0.992 ± 0.018
58 | TATATACTGT | 1.02 ± 0.03
59 | TATATCAGGT | 1.018 ± 0.0066
60 | TATATCGGGG | 0.992 ± 0.03
61 | TATATCGGGT | 0.9968 ± 0.0072
62 | TATATCTTTT | 1.04 ± 0.026
63 | TATATGAGAC | 1.003 ± 0.0083
64 | TATATGAGGG | 1 ± 0.057
65 | TATATGATGA | 0.996 ± 0.015
66 | TATATGATTA | 0.973 ± 0.016
67 | TATATGCCGT | 1.02 ± 0.066
68 | TATATGGGAA | 0.998 ± 0.029
69 | TATATGGGGG | 0.981 ± 0.026
70 | TATATGGTCC | 0.9841 ± 0.0083
71 | TATATGTAAT | 1.01 ± 0.038
72 | TATATTAAAG | 0.976 ± 0.015
73 | TATATTACCA | 1.01 ± 0.051
74 | TATATTCAGT | 1.02 ± 0.0099
75 | TATATTGGGG | 0.991 ± 0.018
76 | TATATTTCTG | 0.986 ± 0.019
77 | TATATTTGTA | 0.979 ± 0.024
78 | TATCACTTCC | 1.96 ± 0.023

Row | Sequence | switch fluorescence ratio
79 | TATCAGCATG | 1.01 ± 0.033
80 | TATCAGTTGT | 1.03 ± 0.013
81 | TATCATGAG | 1 ± 0.033
82 | TATCCAAGTT | 0.999 ± 0.013
83 | TATCCGTGGG | 0.973 ± 0.051
84 | TATCCTTAGG | 1.01 ± 0.059
85 | TATCCTTTGT | 1.22 ± 0.2
86 | TATCGAAAAA | 0.967 ± 0.054
87 | TATCGAAATT | 0.981 ± 0.021
88 | TATCGATGTT | 1.005 ± 0.0099
89 | TATCGGACTG | 1.01 ± 0.13
90 | TATCGGATAA | 0.9947 ± 0.0037
91 | TATCGGGACT | 0.9751 ± 0.006
92 | TATCGGGTCG | 1.12 ± 0.13
93 | TATCGGTCTT | 0.9224 ± 0.0088
94 | TATCGGTTGG | 1.044 ± 0.0086
95 | TATCGGTTGT | 1.03 ± 0.015
96 | TATCGTTGTT | 1 ± 0.021
97 | TATCTACTGG | 1.0076 ± 0.00035
98 | TATCTATGGG | 0.983 ± 0.047
99 | TATCTATGTA | 1.01 ± 0.02
100 | TATCTGGGGT | 1.02 ± 0.025
101 | TATCTGGGTA | 0.978 ± 0.01
102 | TATCTGTTGT | 0.967 ± 0.033
103 | TATCTTATTT | 0.9874 ± 0.0093
104 | TATCTTTTTT | 0.98 ± 0.024

Row | Sequence | switch fluorescence ratio
105 | TATGAAATGT | 1.01 ± 0.033
106 | TATGAAGACG | 1.12 ± 0.064
107 | TATGAAGAGG | 0.994 ± 0.033
108 | TATGAAGCCC | 1.02 ± 0.039
109 | TATGAATCCG | 1 ± 0.063
110 | TATGACATTA | 1.025 ± 0.0026
111 | TATGACGACG | 1.04 ± 0.045
112 | TATGACGGGG | 0.962 ± 0.014
113 | TATGACTTTG | 1.03 ± 0.071
114 | TATGAGATAG | 0.982 ± 0.021
115 | TATGAGATTT | 0.955 ± 0.026
116 | TATGAGGATC | 1.01 ± 0.039
117 | TATGAGGATT | 0.9749 ± 0.0023
118 | TATGAGGGCT | 1.04 ± 0.012
119 | TATGAGTCGA | 1 ± 0.019
120 | TATGATCTGT | 0.979 ± 0.021
121 | TATGATGGGG | 0.963 ± 0.035
122 | TATGATTTGG | 0.976 ± 0.031
123 | TATGCAGGGA | 1.16 ± 0.29
124 | TATGCATGTG | 0.996 ± 0.015
125 | TATGCCATTT | 1.0337 ± 0.00046
126 | TATGCGGCTT | 0.988 ± 0.04
127 | TATGCGGGGG | 1.02 ± 0.046
128 | TATGGAATGG | 0.997 ± 0.046
129 | TATGGACTGT | 1.021 ± 0.01
130 | TATGGAGCCA | 1.02 ± 0.032

Row | Sequence | switch fluorescence ratio
131 | TATGGAGGAT | 1.09 ± 0.13
132 | TATGGATAGG | 0.996 ± 0.014
133 | TATGGCCGTG | 0.998 ± 0.061
134 | TATGGGAATG | 1.019 ± 0.0021
135 | TATGGGATGT | 0.988 ± 0.016
136 | TATGGGATTA | 1.04 ± 0.064
137 | TATGGGATTG | 0.998 ± 0.021
138 | TATGGGGCAA | 1.091 ± 0.0015
139 | TATGGGGGAT | 1.03 ± 0.093
140 | TATGGGGGGT | 0.976 ± 0.017
141 | TATGGGTAAT | 0.975 ± 0.016
142 | TATGGGTGGC | 1.02 ± 0.11
143 | TATGGTAGGG | 0.9886 ± 0.0076
144 | TATGGTCTGT | 0.981 ± 0.042
145 | TATGGTGGAG | 0.981 ± 0.02
146 | TATGGTGGTT | 1.12 ± 0.12
147 | TATGGTGTTT | 1.02 ± 0.036
148 | TATGTAAGGG | 1.01 ± 0.026
149 | TATGTACGCA | 1.11 ± 0.018
150 | TATGTACGTG | 1.02 ± 0.053
151 | TATGTACTAA | 1.08 ± 0.023
152 | TATGTCCGTA | 1 ± 0.013
153 | TATGTGAAAA | 0.9747 ± 0.006

— the supplement of paper PMC10126150
